Measured values taken from the supplement of paper PMC9170038.

Columns and labels:
MS2 coat protein [1] = assay: apparent KD of MS2 coat protein; higher = weaker reporter binding; settings: Eterna round: R101
Protocol: (§1)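 RNA-MaP: designed FMN/MS2 RNA switches (84 nt design region) are transcribed on-chip within common flanks and titrated with SNAP-549-labelled MS2 coat protein (about 1-3000 nM) in 100 mM Tris pH 7.5, 80 mM KCl, 4 mM MgCl2, without or with 200 uM FMN. Median apparent KD per design; activation ratio = KD,OFF / KD,ON.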

MS2 coat protein [2] = assay: apparent KD of MS2 coat protein; designed switch direction (-1 OFF switch, 1 ON switch): -1; higher = weaker reporter binding; settings: Eterna round: R98
Protocol: as §1

MS2 coat protein [3] = assay: apparent KD of MS2 coat protein; designed switch direction (-1 OFF switch, 1 ON switch): 1; higher = weaker reporter binding; settings: Eterna round: R98
Protocol: as §1

| Sequence | apparent KD of MS2 coat protein (MS2 coat protein [1]; input ligand: FMN 200 uM) | apparent KD of MS2 coat protein (MS2 coat protein [1]; input ligand: none) | apparent KD of MS2 coat protein (MS2 coat protein [3]; input ligand: FMN 200 uM) | apparent KD of MS2 coat protein (MS2 coat protein [3]; input ligand: none) | further results |
| --- | --- | --- | --- | --- | --- |
| CUAUUAUAUGUAGGAUAUGCAUAUUAUUAUUGUGCAGAAGGACAUGAGGAUCACCCAUGUAUAUUAUUAUUAUAUAUUAUAUAU (puzzle (switch architecture): Exclusion NG 1) | 11.8 nM | 16.5 nM |  |  |  |
| UAAUAAUAAUAAUACGUCAAUUACAUGAGGAUCACCCAUGUAUAGGAUAUGCAGUGGAAUACACUGCAGAAGGAUACAAAGACG [Exclusion NG 3/3-B1] |  |  |  |  | apparent KD of MS2 coat protein (MS2 coat protein [2]; input ligand: FMN 200 uM): 22.8 nM; apparent KD of MS2 coat protein (MS2 coat protein [2]; input ligand: none): 19.6 nM |
| GCGUCCCGCAGAGGAUAUGUUGUUCGGCCUACAUGAGGAUCACCCAUGUCAAAGGGCUGAUCCCAACAGAAGGCUGAAGGAUAC [Qumarera] |  |  | 8.73 nM | 64 nM |  |
| CGCUAUGAUGGUUGUAAUAGAGCAUAGGAUAUGCUUGUACAUGAGGAUCACCCAUGUUAUAUUUUGCAGAAGGGUGCAUUUGCG [JR #DistanceFar #Hairpin #NP SLSSNG3 Sub073] (puzzle (switch architecture): Small Loop Same State NG 3) | 30.1 nM | 59.9 nM |  |  |  |
| CAUGUCCUCACAGGAUAUGCUGGACUUUGUCCAGCAGAAGGGUGAACAUGAGGAUCACCCAUGUAAUGGACAUGUAUAUUUAAG [Mat - Same State NG 1 - Eli mod - D98] |  |  | 49.4 nM | 902 nM |  |
| GGGUACAUCGGAGGAUAUCAUGUAAAUACAUGAGGAUCACCCAUGUCGAUGGAGACAUAGGAGAUUGAGAAGGCCGAUGUACCG (puzzle (switch architecture): Same State NG 2) | 144 nM | 74 nM |  |  |  |
| ACAUAAUGGUGAGGAUAUGCACAGGAUCACCGUGUAGAAGGCAUCAGGUAGAAGGUGCAGAGGAUCACCCUGUAAGGAUAUAUC [pwkr2 ssNG1 DX.19] |  |  | 94.6 nM | 562 nM |  |
| AAAUGAUAUCAGAAGGGCUCCAGCAAAGCUGGAGCAGGAUAUGAGGAUCACCCAUAUCACCUGACGGUCGAAACGACCGUCAGG [#SharedSequence - IExNG1: 7-1] (puzzle (switch architecture): Inverted Exclusion NG 1) | 62.1 nM | 15.5 nM |  |  |  |
| UGGUACAUGGGAGGAUAUGGGUUGAUAACAUGAGGAUCACCCAUGUUAAAUAAGCCGAGAGGCUACUAGAAGGCCCAUGUACCU [#InverseDoubleMagnetSystem - JL SNG1 3.00 18] (puzzle (switch architecture): Same State NG 2) | 10.6 nM | 293 nM |  |  |  |
| GCAGAAGGUGCGGAGGAUCACCCUGUAAGGAUAUGCAUUAGCAAGGAUAUACAGAGGAUCACCCUGUAGAAGGUGCACUACUCU [pwkr2 ssNG3 DX.1] |  |  | 1140 nM | 1430 nM |  |
| GGAGACCUUACAGGAUAUGCUGGACUUUGUCCAGCAGAAGGGUGAAUACAUGAGGAUCACCCAUGUAUGGUCUCCAAAUUUAAU [jl-ssng1-3.05 #GC_VS_GU_SWITCHING] (puzzle (switch architecture): Same State NG 1) | 121 nM | 52.2 nM |  |  |  |
| GAGCUGCUCUGAGGAUAUGGGUUUAUAAGGACGGGCACGCCCGACAUGAGGAUCACCCAUGUCUACCAGAAGGCAGAAAAGUUC [Mamain] |  |  | 394 nM | 171 nM |  |
| GCUUGCGACGCAGGAUAUGGGUGCCUGCACACGAGGAUCACCCGUGUAGAGGAACGGAUUACGUCUCAGAAGGGCGUGGCAGGC [United States 4 - Jieux - Same State NG 2] |  |  | 21.8 nM | 88.9 nM |  |
| AAUAAAACUCAAGGAUAUCAGUGGCAAAGCCACUGAGAAGGUGAGGAUCACCCACCUACGUGACGCUGGAAACAGCGUCACGAA [#SharedSequence ExNG1 - 33] (puzzle (switch architecture): Exclusion NG 1) | 36.3 nM | 15.8 nM |  |  |  |
| GGAGAUACAUGAGGAUCACCCAUGUAGGAUAUCGGGCCCAUACCCGGCGAAAGCCGGGUAUGGGCCGAGAAGGGCGUACACACC [#LOL-5] (puzzle (switch architecture): Small Loop Exclusion NG 3) | 7.47 nM | 8.26 nM |  |  |  |
| GCUCUCACUUGAGGAUAUCGAGUGGAUAACACUCGAGAAGGCAGGGAAACCUGAGGAUCACCCAGGUAACUGGAAAGAGAGCAA [Same State NG1 - A3C, U17G Submission 5D] |  |  | 20.4 nM | 31.8 nM |  |
| UUGGUUGUCGUAGGAUAUGUAGGAUAUUCCUACAUGAGGAUCACCCAUGUUCGCAUGGAAGAAGGACAGAAGGACGAUGACCAU [salish99_SSNG2_001 #endbits investigation] (puzzle (switch architecture): Same State NG 2) | 9.52 nM | 1280 nM |  |  |  |
| AAAAAUUCUUAAGGAUAUGACUCCGAAACGGAGUCAGAAGGUGAGGAUCACCCACCUAGCUCAGCGUCGAAAGACGCUGAGCAA [#SharedSequence ExNG1 - 28] (puzzle (switch architecture): Exclusion NG 1) | 12 nM | 10.9 nM |  |  |  |
